Our source for the stoichiometry N and percent in the dimeric form values is publication PMC2116055.

Common to all, as to assay: non-reducing SDS-PAGE of immunoprecipitates
Assay [1] deals with recombinant rat fibronectin, A form (with EIIIA only), expressed in WEHI231 cells (rat).
Assay [2] deals with recombinant rat fibronectin, O form (no EIIIB, EIIIA or V segment), expressed in WEHI231 cells (rat).
In assay [3] the target is recombinant rat fibronectin, B form (with EIIIB only), expressed in WEHI231 cells (rat).
In assay [4] the target is recombinant rat fibronectin, V form (with the V segment only), expressed in WEHI231 cells (rat).

With “recombinant rat fibronectin, A form (with EIIIA only), expressed in WEHI231 cells (natural protein)”, the stoichiometry N in assay [1] is 2.

Turning to “recombinant rat fibronectin, O form (no EIIIB, EIIIA or V segment), expressed in WEHI231 cells (natural protein)”, in assay [2], the percent in the dimeric form came out at 50% and the stoichiometry N amounted to 2.

For “recombinant rat fibronectin, B form (with EIIIB only), expressed in WEHI231 cells (natural protein)”, the stoichiometry N in assay [3] was 2.

For “recombinant rat fibronectin, V form (with the V segment only), expressed in WEHI231 cells (natural protein)”, in assay [4], the percent in the dimeric form was 90% and the stoichiometry N was 2.

What is called stoichiometry N is a count of units in the complex or per binding partner.
